Positions count from the first letter of the chain named.
Assays:
[1] = biological target: T1, recombinant monomeric HIV-1 YU2 gp120, produced in Drosophila S2 cells (HIV-1 YU2, UniProt P35961 32-498, limits assumed, glycosylated (high-mannose glycans are the CVN binding sites)); test: competition ELISA on plate-adsorbed YU2 gp120; competitor mAb 2G12 at 50 ug/ml; percent of control without L5
T1 construct: domain: gp120

[2] = biological target: T1, recombinant monomeric HIV-1 YU2 gp120, …; test: competition ELISA on plate-adsorbed YU2 gp120; competitor mAb F105 at a 1:20,000 dilution; percent of control without L5
[3] = biological target: T1, recombinant monomeric HIV-1 YU2 gp120, …; test: competition ELISA, adsorbed YU2 gp120, increasing L5 with 2 ug/ml mAb 17b as competitor; inhibition of mAb 17b binding to gp120, ELISA
[4] = biological target: T1, recombinant monomeric HIV-1 YU2 gp120, …; test: ELISA, 100 ng YU2 gp120 adsorbed on the plate, serial dilutions of L5, detection with polyclonal anti-CVN, BSA background subtracted
[5] = biological target: T1, recombinant monomeric HIV-1 YU2 gp120, …; test: competition ELISA on plate-adsorbed YU2 gp120; blocked ligand sCD4 at 0.5 ug/ml, detected with anti-CD4; percent of uninhibited control
[6] = biological target: T1, recombinant monomeric HIV-1 YU2 gp120, …; test: ELISA, 100 ng YU2 gp120 adsorbed on the plate, serial dilutions of L5-S12p1, detection with polyclonal anti-CVN, BSA background subtracted
Method: Error bars indicate standard deviation.
YU2 was adsorbed to a 96-well EIA/RIA plate overnight at 4° C.
Ninety-six well plates (Corning) were coated with either 100 ng of the indicated gp120 or BSA overnight at 4° C. The wells were washed three times with 1×PBS-T (PBS, 0.1% Tween) and non-specific binding blocked with 1% (wt/vol) BSA in PBS. […] After a one hour incubation, the wells were washed and incubated with a 1/2500 dilution of anti-rabbit HRP (Amersham) for one hour at room temperature. The wells were washed three times and the extent of binding was then determined by OPD (o-phenylenediamine, Sigma) and absorbance measured at 450 nm.

[7] = biological target: T2, HIV-1 SF162 gp120 (Clade B) (HIV-1 SF162, UniProt P19550 32-502); test: ELISA, 100 ng gp120 adsorbed on the plate, 50 nM CVN, detection with polyclonal anti-CVN, BSA background subtracted
T2 construct: domain: gp120

B1: L5 chimera (CVN-12p1): CVN, linker of five Gly4Ser repeats, 12p1, C-terminal hexa-histidine tag (other)
chain: LGKFSQTCYNSAIQGSVLTSTCERTNGGYNTSSIDLNSVIENVDGSLKWQPSNFIETCRNTQLAGSSELAAECKTRAQQFVSTKINLDDHIANIDGTLKYEGSGGGGSGGGGSGGGGSGGGGSGGGGSRINNIPWSEAMMHHHHHH
notes: Fusion protein, about 15 kDa; also called the chimera
IC50 (read off the curve) [1]: ~40 nM | IC50 (read off the curve) [2]: ~20 nM | IC50 [3]: 38 nM | EC50 (read off the curve) [4]: ~9 nM | IC50 (read off the curve) [5]: ~20 nM

B2: L5-S12p1: chimera of CVN, linker of five Gly4Ser repeats and scrambled (non-sense) 12p1 peptide (other)
chain: B1 chain with R129W, I130R, N131I, N132M, I133M, P134I, W135P, M139N, M140N
notes: check the entry type; also called scrambled chimera
EC50 (read off the curve) [6]: ~20 nM

B3: cyanovirin-N (CVN), recombinant, periplasmic expression in E. coli, hexa-histidine tagged (other)
chain: LGKFSQTCYNSAIQGSVLTSTCERTNGGYNTSSIDLNSVIENVDGSLKWQPSNFIETCRNTQLAGSSELAAECKTRAQQFVSTKINLDDHIANIDGTLKYEHHHHHH
notes: Lectin, 11 kDa
binding result [7]: binds
